# B1: KCNA1 (parent)
# chain: LKASMRELGLLIFFLFIGVILFSS
# B2: ATE1 (parent)
# chain: YGSFHQQYWLDGKIIAVGVIDILP
# Variants of: B1
# Experiment: protein stability index of a GFP-peptide fusion (GPS, HEK-293T) (PSI 1-6); higher = more stable
# Details: c terminus: a fixed tail appended
# 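Further: lentivirally expressed fusions sorted by FACS into six bins by GFP to DsRed ratio, PSI derived from sequencing read proportions per bin multiplied by bin number.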
row,Variant,protein stability index
1,FKASMRELGLLIFFLFIGVILFSS [L1F],2.12
2,TKASMRELGLLIFFLFIGVILFSS [L1T],1.84
3,VKASMRELGLLIFFLFIGVILFSS [L1V],1.88
4,NKASMRELGLLIFFLFIGVILFSS [L1N],2.84
5,AKASMRELGLLIFFLFIGVILFSS [L1A],2.05
6,GKASMRELGLLIFFLFIGVILFSS [L1G],3
7,WKASMRELGLLIFFLFIGVILFSS [L1W],1.56
8,YKASMRELGLLIFFLFIGVILFSS [L1Y],2.76
9,CKASMRELGLLIFFLFIGVILFSS [L1C],2.3
10,QKASMRELGLLIFFLFIGVILFSS [L1Q],2.04
11,KKASMRELGLLIFFLFIGVILFSS [L1K],1.58
12,IKASMRELGLLIFFLFIGVILFSS [L1I],2.29
13,EKASMRELGLLIFFLFIGVILFSS [L1E],1.93
14,HKASMRELGLLIFFLFIGVILFSS [L1H],3.89
15,PKASMRELGLLIFFLFIGVILFSS [L1P],1.82
16,MKASMRELGLLIFFLFIGVILFSS [L1M],2.27
17,SKASMRELGLLIFFLFIGVILFSS [L1S],1.05
18,RKASMRELGLLIFFLFIGVILFSS [L1R],1.4
19,LKASVRELGLLIFFLFIGVILFSS [M5V],2.79
20,LKASCRELGLLIFFLFIGVILFSS [M5C],2.92
21,LKASQRELGLLIFFLFIGVILFSS [M5Q],3.33
22,LKASPRELGLLIFFLFIGVILFSS [M5P],3.22
23,LKASRRELGLLIFFLFIGVILFSS [M5R],1.76
24,LKASDRELGLLIFFLFIGVILFSS [M5D],2.29

row,Variant,protein stability index
1,LKASGRELGLLIFFLFIGVILFSS [M5G],1.28
2,LKASNRELGLLIFFLFIGVILFSS [M5N],2.51
3,LKASIRELGLLIFFLFIGVILFSS [M5I],2.19
4,LKASFRELGLLIFFLFIGVILFSS [M5F],1.98
5,LKASLRELGLLIFFLFIGVILFSS [M5L],1.82
6,LKASTRELGLLIFFLFIGVILFSS [M5T],2.21
7,LKASYRELGLLIFFLFIGVILFSS [M5Y],2.42
8,LKASWRELGLLIFFLFIGVILFSS [M5W],1.78
9,LKASARELGLLIFFLFIGVILFSS [M5A],3.19
10,LKASKRELGLLIFFLFIGVILFSS [M5K],1.94
11,LKASSRELGLLIFFLFIGVILFSS [M5S],2.33
12,LKASMREIGLLIFFLFIGVILFSS [L8I],2.27
13,LKASMRECGLLIFFLFIGVILFSS [L8C],2.28
14,LKASMREEGLLIFFLFIGVILFSS [L8E],4
15,LKASMREGGLLIFFLFIGVILFSS [L8G],1.65
16,LKASMREQGLLIFFLFIGVILFSS [L8Q],2.55
17,LKASMRERGLLIFFLFIGVILFSS [L8R],2.8
18,LKASMREKGLLIFFLFIGVILFSS [L8K],2.58
19,LKASMREMGLLIFFLFIGVILFSS [L8M],2.26
20,LKASMREPGLLIFFLFIGVILFSS [L8P],3.22
21,LKASMREHGLLIFFLFIGVILFSS [L8H],2.1
22,LKASMREDGLLIFFLFIGVILFSS [L8D],2.32
23,LKASMREFGLLIFFLFIGVILFSS [L8F],2.39
24,LKASMREAGLLIFFLFIGVILFSS [L8A],2.58

# Variants of: B2
# Experiment: as above
# Details: c terminus: a fixed tail appended
row,Variant,protein stability index
1,YGSFHQQYWLDGKIIAVGVIDILA [P24A],2.06
2,YGSFHQQYWLDGKIIAVGVIDILQ [P24Q],2.51
3,YGSFHQQYWLDGKIIAVGVIDILK [P24K],1.04
4,YGSFHQQYWLDGKIIAVGVIDILV [P24V],3.01
5,YGSFHQQYWLDGKIIAVGVIDILI [P24I],2.73
6,YGSFHQQYWLDGKIIAVGVIDILG [P24G],3.18
7,YGSFHQQYWLDGKIIAVGVIDILF [P24F],1.69
8,YGSFHQQYWLDGKIIAVGVIDILW [P24W],3.2
9,YGSFHQQYWLDGKIIAVGVIDILL [P24L],4.25
10,YGSFHQQYWLDGKIIAVGVIDILM [P24M],2.18
11,YGSFHQQYWLDGKIIAVGVIDILS [P24S],1.79
12,YGSFHQQYWLDGKIIAVGVIYILP [D21Y],1.97
13,YGSFHQQYWLDGKIIAVGVIWILP [D21W],4.17
14,YGSFHQQYWLDGKIIAVGVIVILP [D21V],4.01
15,YGSFHQQYWLDGKIIAVGVIPILP [D21P],2.97
16,YGSFHQQYWLDGKIIAVGVISILP [D21S],3.23
17,YGSFHQQYWLDGKIIAVGVIQILP [D21Q],3.26
18,YGSFHQQYWLDGKIIAVGVITILP [D21T],3
19,YGSFHQQYWLDGKIIAVGVIRILP [D21R],3.36
20,YGSFHQQYWLDGKIIAVGVIDELP [I22E],3.75
21,YGSFHQQYWLDGKIIAVGVIDTLP [I22T],1.74
22,YGSFHQQYWLDGKIIAVGVIDWLP [I22W],2.77
23,YGSFHQQYWLDGKIIAVGVIDHLP [I22H],2.9

row,Variant,protein stability index
1,YGSFHQQYWLDGKIIAVGVIDMLP [I22M],3.15
2,YGSFHQQYWLDGKIIAVGVIDKLP [I22K],1.43
3,YGSFHQQYWLDGKIIAVGVIDRLP [I22R],2.18
4,YGSFHQQYWLDGKIIAVGVIDVLP [I22V],2.14
5,YGSFHQQYWLDGKIIAVGVIDQLP [I22Q],2.42
6,YGSFHQQYWLDGKIIAVGVIDALP [I22A],3.85
7,YGSFHQQYWLDGKIIAVGVIDSLP [I22S],3.81
8,YGSFHQQYWLDGKIIAVGVIDFLP [I22F],2.93
9,YGSFHQQYWLDGKIIAVGVIDYLP [I22Y],2.23
10,YGSFHQQYWLDGKIIAVGVIDPLP [I22P],3.32
11,YGSFHQQYWLDGKIIAVGVIDDLP [I22D],2.81
12,YGSFHQQYWLDGKIIAVGVIDISP [L23S],2.66
13,YGSFHQQYWLDGKIIAVGVIDIIP [L23I],2.34
14,YGSFHQQYWLDGKIIAVGVIDIKP [L23K],2.49
15,YGSFHQQYWLDGKIIAVGVIDIEP [L23E],1.4
16,YGSFHQQYWLDGKIIAVGVIDIGP [L23G],2.94
17,YGSFHQQYWLDGKIIAVGVIDIPP [L23P],2.72
18,YGSFHQQYWLDGKIIAVGVIDIAP [L23A],4.34
19,YGSFHQQYWLDGKIIAVGVIDIQP [L23Q],3.64
20,YGSFHQQYWLDGKIIAVGVIDITP [L23T],2.53
21,YGSFHQQYWLDGKIIAVGVIDIMP [L23M],1.78
22,YGSFHQQYWLDGKIIAVGVIDIHP [L23H],2
23,YGSFHQQYWLDGKIIAVGVIDIDP [L23D],2.88
